# Source: the DeepSol protein solubility set
# Test: soluble on expression in E. coli; label from the status in PepcDB or PDB records
row,Sequence,soluble on expression in E. coli
1,MNIFTEAAKLEEQNCPFAMAQIVDSRGSTPRHSAQMLVRADGSIVGTIGGGMVERKVIEESLQALQERKPRLFHGRMARNGADAVGSDCGGAMSVFISVHGMRPRLVLIGAGHVNRAIAQSAALLGFDIAVADIYRESLNPELFPPSTTLLHAESFGAAVEALDIRPDNFVLIATNNQDREALDKLIEQPIAWLGLLASRRKVQLFLRQLREKGVAEEHIARLHAPVGYNIGAETPQEIAISVLAEILQVKNNAPGGLMMKPSHPSGHQLVVIRGAGDIASGVALRLYHAGFKVIMLEVEKPTVIRCTVAFAQAVFDGEMTVEGVTARLATSSAEAMKLTERGFIPVMVDPACSLLDELKPLCVVDAILAKQNLGTRADMAPVTIALGPGFTAGKDCHAVIETNRGHWLGQVIYSGCAQENTGVPGNIMGHTTRRVIRAPAAGIMRSNVKLGDLVKEGDVIAWIGEHEIKAPLTGMVRGLLNDGLAVVGGFKIGDIDPRGETADFTSVSDKARAIGGGVLEALMMLMHQGVKATKEVLEVALEHHHHHH,not soluble
2,MIIRNVRILICMNTIYYEAHNNLYLNLTNRCSADCIFCIRNFADGVYGYNLRLSKEPSTEEIIEALEGLDLSKYREIVFTGLGEPTLRLDVVLAVTRWLKNQGLRVRLDTNGHAALINPKLDVIAELKKAGLDSVSVSLNAESEEKYNKLCRPVHKNAYRAMLDFVRGAKEAGISTRVTVVKIPEIDVEKCRKVSEELGSDFHIRLLSEAASQEIRE,not soluble
3,MGSDKIHHHHHHALICNSAVTTTASTLYSWHQVRNTLAIMFNKRHIERHQLPCVLKVFNRFTGQEIGQLGNASENGLMVISQLPVLVGPDYELQLRMPLPGGGHQFVNLTASCLWCREDQTPGHYDSGFMLLQSPREYDDFVRSLRDYFSFRPANAPV,not soluble
4,MGSDKIHHHHHHCKDDDTLLRGSGITEQSWSTNQTYFASAEQTLTFTFTTLSSWTAQNSSTALLSLDNTAGNSGENTIKVTVHKSSQEQGTITIKVNGYSSASNIKIQLSDDDVQGYEINYSVDQYLREKYLWNDDYKLLTPNFRQAYDEFLRNTLLSMTTNTLDKKRNSNGTYSLFSFIQKLDPDLQTSRSAKEKKTLEYNYGFVNFIAVGNRNNSNYGLVIQGVHKGSSADKEGLKRGMEITEIDNQRITTTNVQACYSKLIKPSSPTSIKVKDKDGKVYTINSGPIYANPIIHHQVNEKIGYLVYSAFESGFDQELFDVFKEFKSQNITELILDLRYNGGGDVTSANLISSCIAGDLCIDKTFASYRYNDERMKVLGNQRPIQKFAYSQYDNLSTSLSAGGLNLRKIYCLVTDDSASASELVINALRGIDIEVILIGTTTHGKNVGMEGVELTAGTDKYLLFPITFQAYNAKGFGDFENGFTPDYEINENKPNGEYFEGYGDFGAESDPLYAKAISLISGNEVTTPTRAVNQAKEQMLVIATPRLNRIGMIK,not soluble
5,ARVDQTPRSVTKETGESLTINCVLRDASYALGSTCWYRKKSGEGNEESISKGGRYVETVNSGSKSFSLRINDLTVEDGGTYRCGLGVAGGYCDYALCSSRYAECGDGTAVTVN,soluble
6,GPGSMVEYKSAAAIAQALFTTHGKDSTTFNRLLRDRIGKRGDRFTEDHPDTFLYIERSKNANVVAYTARFVDAETKKPVPSGVGRDCIIKHDGPVHAYFITLDPQQMEKLRAKGRTSLIDDLNFVQRKMAYGCSGKSFDVASASRECDNPADFKRWMSAFDPYTLSYVALAKYPTLLLTLKPVKDSNGEENDTAVALIAVIGGELSVVKKIYVSSTEPKHFYELPTVNYIEVFGVSVDKGSDTYEKKAP,not soluble
7,MGSDKIHHHHHHMQVPKVTLNNGVEMPILGYGVFQIPPEKTEECVYEAIKVGYRLIDTAASYMNEEGVGRAIKRAIDEGIVRREELFVTTKLWVSDVGYESTKKAFEKSLKKLQLEYIDLYLIHQPFGDVHCAWKAMEEMYKDGLVRAIGVSNFYPDRLMDLMVHHEIVPAVNQIEIHPFYQRQEEIEFMRNYNIQPEAWGPFAEGRKNIFQNGVLRSIAEKYGKTVAQVILRWLTQKGIVAIPKTVRRERMKENISIFDFELTQEDMEKIATLDEGQSAFFSHRDPEVVKWICSLKR,soluble
8,MNSDDEIYMEGSASSEDDMDDECLSDDDGIARHDQSASDYLNKKDKDNEVLDHDSLEAEMKKAISEVEAVLQVKTGVCRILLHKYKWNKESLLERFYEHPDTIAFLIDAQVIPRQQEVIPAGDAECDICCSMDELSGLSCNHRACAECWQAYLTNKIVSDAQSEIECMAPNCKLLIEDEKVLSYISDPTMVSKYRKLMVASYVEINCLLRWCPGIDCGKAVKVSHWEPRLVVCSCGTCFCFSCGQNWHEPLNCRHLKKWIKKCQDDSETMNWINANTKDCPKCMIPIEKNGGCNRMLCTNSGCRYEFCWMCLEPWTKHGYQYACNGYDETAVKNPQDAQEISRANLKRYLFYFNRYMGHEQSLQLEGKLNIKVAKKMEQMENMSMSWIEVQFLRKAVDILSECRRTLMYTYAFAFYLKKDNNSIIFESNQANLEMETEQLSGFLERDLEDEDLVTLKQKVQDKYRYVEQRRKVLLDHCAEGAEQDIWQYND,not soluble
9,MSDKDFFSWRRTMLLRFQRMETAEEVYHEIELQAQQLEYDYYSLCVRHPVPFTRPKVAFYTNYPEAWVSYYQAKNFLAIDPVLNPENFSQGHLMWNDDLFSEAQPLWEAARAHGLRRGVTQYLMLPERALGFLSFSRCSAREIPILSDELQLKMQLLVRESLMALMRLNDE,soluble
10,MGHHHHHHSHMAGTALKRLMAVYKQLTLNPPEGIVAGPMNEENFFEWEALIMGPEDTCFEFGVFPAILSFPLDYPLSPPKMRFTCEMFHPNIYPDGRVCISILHAPGDDPHGLREQPERWSPVQSVEKILLSVVSMLAEPNDESGANVDASKMWRDDREQFYKIAKQIVQKSLGL,not soluble
11,MGCRATQRESVGFADKIRYTERRFISVFGVPLLIQLICQAPQRAQELEQIAARWQLQASDDSPFALVLSEERLELRKLDEPKLGAIYVDWVEGAVAHRRKFGGGKGQSIAKAAGLNKGVTPVVLDATAGLGRDAFVLASLGCRVQMVERHPVVAALLEDGLQRAKQDDEIGAWVSERISLLHASSHDALQQLASDPNFTSPDVVYLDPMYPHPENKKKTALVKKEMRVFQSLVGADNDADALLEPALQLAQKRVVVKRPDYAPWLGNRKPSMAMETKKNRFDVYVIAAMSGE,soluble
12,MRILAIGDIIGRPGRKALRELLPQLKEEVAYDVVIANVENSAGGFGITKKVYEELLEIGIDVMTSGNHIWDKKEVYNFIGEAYNLLRPANYPEGVPGRGYGIFKKNGVEFAVINLMGKVFMDCNLENPFKTFDRIYDELKDKVKIIVVDFHAEATSEKWAFGIYVDGRASFVYGTHTHVPTADEFILKKGTGYVSDIGMTGVWYSAIGMKPKEAIERFLLSLPRRFEVEDKGEIMFNAVLVDIDEETGKTKSIERIKRFL,soluble
13,MSLNIFDIAKQNQEKAWQVIKNTNIIQIWEDAGAKINLVGSLRTGLLMKHRDIDFHIYSSPLNLTDSFQAMARLAENPSIKRIECANLLHTAEACIEWHAWYQNEENELWQMDMIHIREGSRYDGYFEKVAQRISEIMTDEIRETILRLKYETPETEKIIGVEYYQAVIRDGVRDYSGFKEWRKQHPVTGVVEWMPEGHHHHHH,soluble
14,MNELREKDESYRSFLLLSAISSEEPLSQREIARQVGIALGLVNSYLKHLVDKGFVRIKSFPRNRYAYLLTPRGLAEKSRLAYEHLSSFTTLFRVARQDYLALFRALKTQGVGRVAFCGVDEVAEIAYLSLREVGLELALVMDQATDGREFFGKPVVSIPHGLLAGNHHIVITTFKRREALREELLQRGVASELLHQAGEPAGETQSIREEHP,not soluble
